# Measured values: PMC8458290 (Nature Communications, 2021)
# B1: nanobody C1 (monovalent VHH, pOPINO construct) (VHH)
# VHH: QVQLVESGGGLVQPGGSLRLSCAASGFTNDFYSIAWFRQAPGKEREGVSWLSVSDNTPTYVDSVKDRFTISRHNANNTVYLQMNMLKPEDTAIYYCAAGRFAGRDTWPSSYDYWGQGTQVTVSS
# B2: nanobody F2 (monovalent VHH, pOPINO construct) (VHH)
# VHH: QVQLVESGGGLVQAGGSLRLACIASGRTFHSYVMAWFRQAPGKEREFVAAISWSSTPTYYGESVKGRFTISRDNAKNTVYLQMNRLKPEDTAVYFCAADRGESYYYTRPTEYEFWGQGTQVTVSS
# Assays:
# [1] = target: T1, Beta (B.1.351) RBD, biotinylated (SARS-CoV-2, Beta (B.1.351), N501Y | E484K | K417N, biotinylated (site not stated)); test: SPR; conditions: both partners purified
# T1 construct: also called Beta RBD; Beta-RBD
# [2] = target: T2, Alpha (B.1.1.7) RBD, biotinylated (SARS-CoV-2, Alpha (B.1.1.7), N501Y, biotinylated (site not stated)); test: SPR; conditions: both partners purified
# T2 construct: also called Alpha RBD; RBD-Kent
binder,measurement,setting,value
B1,Kd,[1],0.648 nM
same,Kd,[2],0.725 nM
same,T1/2,[2],21 min
B2,Kd,[1],0.038 nM
same,T1/2,[1],52 min
same,Kd,[2],0.047 nM
same,T1/2,[2],51 min
